Results on 1 molecule are retold here after article PMC9045712 (Science Advances, 2022).

For the test, the target named is recombinant MCM2 (minichromosome maintenance protein 2), from 6x His-FLAG-TEV-MCM2 (mouse, UniProt P97310 1-904). Nature of the test: co-IP.
Chain of recombinant MCM2 (minichromosome maintenance protein 2), from 6x His-FLAG-TEV-MCM2 (P97310 whole entry): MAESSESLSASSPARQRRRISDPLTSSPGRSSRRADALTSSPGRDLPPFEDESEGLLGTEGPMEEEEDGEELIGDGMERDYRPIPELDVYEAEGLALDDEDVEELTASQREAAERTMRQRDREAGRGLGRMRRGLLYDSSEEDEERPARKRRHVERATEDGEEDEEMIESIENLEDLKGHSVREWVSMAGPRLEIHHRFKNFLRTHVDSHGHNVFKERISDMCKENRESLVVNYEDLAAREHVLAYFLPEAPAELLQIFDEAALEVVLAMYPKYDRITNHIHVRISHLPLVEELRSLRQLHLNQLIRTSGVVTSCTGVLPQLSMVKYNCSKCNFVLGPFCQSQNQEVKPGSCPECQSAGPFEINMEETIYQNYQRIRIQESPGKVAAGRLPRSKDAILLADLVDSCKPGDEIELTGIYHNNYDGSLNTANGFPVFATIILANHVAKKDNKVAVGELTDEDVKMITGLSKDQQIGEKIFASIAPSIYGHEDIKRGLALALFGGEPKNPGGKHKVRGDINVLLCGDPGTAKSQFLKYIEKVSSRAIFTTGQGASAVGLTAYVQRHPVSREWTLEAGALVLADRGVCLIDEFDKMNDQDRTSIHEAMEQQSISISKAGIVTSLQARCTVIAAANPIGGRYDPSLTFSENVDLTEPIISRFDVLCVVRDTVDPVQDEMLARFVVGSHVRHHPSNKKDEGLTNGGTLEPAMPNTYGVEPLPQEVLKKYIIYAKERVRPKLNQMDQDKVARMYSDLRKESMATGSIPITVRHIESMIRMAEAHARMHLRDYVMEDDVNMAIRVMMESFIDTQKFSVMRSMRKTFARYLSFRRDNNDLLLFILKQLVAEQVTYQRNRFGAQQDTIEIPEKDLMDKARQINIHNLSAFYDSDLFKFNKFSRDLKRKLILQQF

B1: recombinant NPM1 (nucleophosmin), from 6x His-FLAG-TEV-NPM1 (natural protein)
chain: MEDSMDMDMSPLRPQNYLFGCELKADKDYHFKVDNDENEHQLSLRTVSLGAGAKDELHIVEAEAMNYEGSPIKVTLATLKMSVQPTVSLGGFEITPPVVLRLKCGSGPVHISGQHLVAVEEDAESEDEDEEDVKLLGMSGKRSAPGGGNKVPQKKVKLDEDDEDDDEDDEDDEDDDDDDFDEEETEEKVPVKKSVRDTPAKNAQKSNQNGKDLKPSTPRSKGQESFKKQEKTPKTPKGPSSVEDIKAKMQASIEKGGSLPKVEAKFINYVKNCFRMTDQEAIQDLWQWRKSL
In the case of B1, the binding result is recorded as “binds”.
